Laboratory results as given in publication PMC12088458.

Legend:
Assay in all cases: BioID proximity labelling, biotin pull-down, mass spectrometry
Conditions in all cases: HEK293T, n = 3, over EV-BirA control, read off a plot
DDX3X = DDX3X (UniProt O00571)
SMARCA4 = SMARCA4 (UniProt P51532)
SMARCA5 = SMARCA5 (UniProt O60264)
TRRAP = TRRAP (UniProt Q9Y4A5)
β-catenin = β-catenin (UniProt P35222)

Sequence of UniProt Q9Y4A5 (Q9Y4A5 whole entry): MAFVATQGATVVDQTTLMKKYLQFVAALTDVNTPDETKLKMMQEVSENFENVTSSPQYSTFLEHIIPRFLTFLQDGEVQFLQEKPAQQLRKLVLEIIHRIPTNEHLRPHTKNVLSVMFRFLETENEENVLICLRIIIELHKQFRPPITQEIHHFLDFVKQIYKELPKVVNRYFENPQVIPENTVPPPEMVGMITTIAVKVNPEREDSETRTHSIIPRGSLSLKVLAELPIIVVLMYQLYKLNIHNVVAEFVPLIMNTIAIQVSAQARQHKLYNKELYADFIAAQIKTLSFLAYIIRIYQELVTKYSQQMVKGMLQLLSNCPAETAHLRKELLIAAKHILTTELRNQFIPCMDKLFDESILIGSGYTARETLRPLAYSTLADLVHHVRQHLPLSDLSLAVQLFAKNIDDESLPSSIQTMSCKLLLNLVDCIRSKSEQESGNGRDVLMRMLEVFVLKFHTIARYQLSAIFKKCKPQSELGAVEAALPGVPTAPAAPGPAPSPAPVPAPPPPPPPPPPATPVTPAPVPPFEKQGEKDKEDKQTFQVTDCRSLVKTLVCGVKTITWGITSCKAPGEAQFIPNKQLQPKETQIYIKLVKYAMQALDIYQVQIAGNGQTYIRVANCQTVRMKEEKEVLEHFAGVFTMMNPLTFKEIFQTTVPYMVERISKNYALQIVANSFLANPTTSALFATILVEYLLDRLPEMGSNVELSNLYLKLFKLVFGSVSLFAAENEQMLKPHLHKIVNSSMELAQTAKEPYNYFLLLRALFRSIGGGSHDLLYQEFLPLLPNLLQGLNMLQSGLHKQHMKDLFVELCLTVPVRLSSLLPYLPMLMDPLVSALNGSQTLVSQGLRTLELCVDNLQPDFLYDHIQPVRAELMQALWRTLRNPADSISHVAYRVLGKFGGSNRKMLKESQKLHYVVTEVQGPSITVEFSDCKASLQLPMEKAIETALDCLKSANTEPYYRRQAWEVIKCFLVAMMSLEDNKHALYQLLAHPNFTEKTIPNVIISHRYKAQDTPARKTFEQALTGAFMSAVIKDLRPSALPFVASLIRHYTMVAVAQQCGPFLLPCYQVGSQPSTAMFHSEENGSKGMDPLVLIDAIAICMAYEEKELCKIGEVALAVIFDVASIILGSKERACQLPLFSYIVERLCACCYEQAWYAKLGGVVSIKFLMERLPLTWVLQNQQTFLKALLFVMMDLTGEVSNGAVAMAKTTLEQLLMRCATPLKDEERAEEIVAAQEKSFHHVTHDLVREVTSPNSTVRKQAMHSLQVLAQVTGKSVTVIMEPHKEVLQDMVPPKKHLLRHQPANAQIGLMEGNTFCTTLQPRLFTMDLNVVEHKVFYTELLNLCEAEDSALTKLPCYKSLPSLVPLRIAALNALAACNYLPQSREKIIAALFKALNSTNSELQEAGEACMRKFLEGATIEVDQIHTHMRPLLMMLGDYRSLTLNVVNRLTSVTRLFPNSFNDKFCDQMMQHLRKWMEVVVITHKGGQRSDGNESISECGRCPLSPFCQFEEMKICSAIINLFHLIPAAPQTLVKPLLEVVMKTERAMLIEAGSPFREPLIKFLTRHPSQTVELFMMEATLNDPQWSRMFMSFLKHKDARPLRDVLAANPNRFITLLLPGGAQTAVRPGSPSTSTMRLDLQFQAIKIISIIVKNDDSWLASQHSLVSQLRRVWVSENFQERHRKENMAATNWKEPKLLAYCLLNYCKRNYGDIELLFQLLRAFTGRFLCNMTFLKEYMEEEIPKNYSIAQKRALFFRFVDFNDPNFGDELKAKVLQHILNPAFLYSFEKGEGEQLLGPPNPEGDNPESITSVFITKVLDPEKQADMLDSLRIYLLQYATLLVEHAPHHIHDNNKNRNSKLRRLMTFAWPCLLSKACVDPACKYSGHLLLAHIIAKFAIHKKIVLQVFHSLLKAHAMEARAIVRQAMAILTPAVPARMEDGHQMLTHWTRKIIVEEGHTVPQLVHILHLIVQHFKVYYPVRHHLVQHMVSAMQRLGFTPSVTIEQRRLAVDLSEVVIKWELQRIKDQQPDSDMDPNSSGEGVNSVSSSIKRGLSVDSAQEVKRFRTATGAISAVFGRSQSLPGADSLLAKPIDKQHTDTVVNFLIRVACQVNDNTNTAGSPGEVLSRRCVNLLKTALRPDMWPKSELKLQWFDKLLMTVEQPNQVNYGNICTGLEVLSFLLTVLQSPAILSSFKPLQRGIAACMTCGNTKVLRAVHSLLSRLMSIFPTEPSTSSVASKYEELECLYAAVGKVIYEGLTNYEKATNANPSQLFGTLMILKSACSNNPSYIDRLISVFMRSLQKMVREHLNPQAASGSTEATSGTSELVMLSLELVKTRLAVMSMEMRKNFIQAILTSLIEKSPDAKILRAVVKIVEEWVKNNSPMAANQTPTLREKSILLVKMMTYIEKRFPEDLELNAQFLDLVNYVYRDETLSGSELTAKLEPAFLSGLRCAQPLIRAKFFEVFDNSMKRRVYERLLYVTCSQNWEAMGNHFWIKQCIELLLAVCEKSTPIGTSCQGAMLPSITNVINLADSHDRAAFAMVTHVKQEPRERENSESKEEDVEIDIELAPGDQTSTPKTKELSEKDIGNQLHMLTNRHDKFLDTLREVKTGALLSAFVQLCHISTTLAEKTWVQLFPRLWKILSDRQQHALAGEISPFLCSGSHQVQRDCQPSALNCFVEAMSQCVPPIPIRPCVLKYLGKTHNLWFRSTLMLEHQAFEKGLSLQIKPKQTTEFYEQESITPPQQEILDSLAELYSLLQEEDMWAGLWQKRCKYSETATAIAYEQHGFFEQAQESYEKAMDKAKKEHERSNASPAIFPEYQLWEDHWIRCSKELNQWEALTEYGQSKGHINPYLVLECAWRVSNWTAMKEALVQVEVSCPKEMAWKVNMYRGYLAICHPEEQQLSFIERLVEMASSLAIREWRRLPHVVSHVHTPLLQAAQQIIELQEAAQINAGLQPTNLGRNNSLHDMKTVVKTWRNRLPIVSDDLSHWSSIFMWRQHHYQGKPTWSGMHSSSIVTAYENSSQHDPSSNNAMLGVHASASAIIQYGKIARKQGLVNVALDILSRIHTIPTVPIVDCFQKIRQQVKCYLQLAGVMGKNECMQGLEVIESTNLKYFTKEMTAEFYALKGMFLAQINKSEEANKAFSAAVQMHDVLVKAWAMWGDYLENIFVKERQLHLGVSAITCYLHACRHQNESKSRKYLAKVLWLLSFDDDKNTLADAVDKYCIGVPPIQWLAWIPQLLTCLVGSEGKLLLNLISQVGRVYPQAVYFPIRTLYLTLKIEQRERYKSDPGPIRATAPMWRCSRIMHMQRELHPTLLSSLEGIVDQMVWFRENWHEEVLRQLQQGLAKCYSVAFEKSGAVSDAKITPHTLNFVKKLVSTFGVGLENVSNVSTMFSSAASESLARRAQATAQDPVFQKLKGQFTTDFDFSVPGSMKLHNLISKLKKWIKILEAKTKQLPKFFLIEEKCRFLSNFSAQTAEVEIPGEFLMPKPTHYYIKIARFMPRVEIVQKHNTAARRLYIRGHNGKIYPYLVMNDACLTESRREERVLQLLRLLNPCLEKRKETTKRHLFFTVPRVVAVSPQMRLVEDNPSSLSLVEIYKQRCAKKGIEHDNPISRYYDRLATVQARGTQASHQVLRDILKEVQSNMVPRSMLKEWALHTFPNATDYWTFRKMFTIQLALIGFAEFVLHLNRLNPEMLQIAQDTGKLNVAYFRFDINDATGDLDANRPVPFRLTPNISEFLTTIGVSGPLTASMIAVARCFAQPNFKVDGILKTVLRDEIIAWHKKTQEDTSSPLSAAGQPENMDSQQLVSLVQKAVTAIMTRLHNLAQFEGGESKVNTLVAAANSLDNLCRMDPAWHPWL
Sequence of UniProt O00571 (O00571 whole entry): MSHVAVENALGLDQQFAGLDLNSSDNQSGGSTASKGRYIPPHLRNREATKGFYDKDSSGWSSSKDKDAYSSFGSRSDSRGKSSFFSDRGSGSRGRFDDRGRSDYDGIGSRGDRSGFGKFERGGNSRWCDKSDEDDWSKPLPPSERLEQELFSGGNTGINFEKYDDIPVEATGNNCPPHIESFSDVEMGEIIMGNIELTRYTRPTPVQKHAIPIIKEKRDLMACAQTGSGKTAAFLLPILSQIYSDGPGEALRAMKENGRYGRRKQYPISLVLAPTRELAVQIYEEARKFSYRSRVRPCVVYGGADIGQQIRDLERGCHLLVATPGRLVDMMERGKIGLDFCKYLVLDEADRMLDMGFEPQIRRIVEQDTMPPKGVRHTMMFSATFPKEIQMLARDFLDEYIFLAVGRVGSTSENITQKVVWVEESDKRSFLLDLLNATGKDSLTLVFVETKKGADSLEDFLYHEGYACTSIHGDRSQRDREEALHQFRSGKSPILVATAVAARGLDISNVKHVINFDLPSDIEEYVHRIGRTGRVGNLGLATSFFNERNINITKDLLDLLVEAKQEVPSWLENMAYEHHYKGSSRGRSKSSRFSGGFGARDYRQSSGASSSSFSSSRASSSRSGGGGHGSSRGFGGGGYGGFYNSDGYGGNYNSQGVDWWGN

other: SaintScore (DDX3X; WNT-OFF (10 nM LGK974)) | other: SaintScore (DDX3X; WNT-ON (10 µM CHIR99021)) | other: SaintScore (SMARCA4; WNT-OFF (10 nM LGK974)) | other: SaintScore (SMARCA4; WNT-ON (10 µM CHIR99021)) | other: SaintScore (SMARCA5; WNT-OFF (10 nM LGK974)) | other: SaintScore (SMARCA5; WNT-ON (10 µM CHIR99021)) | other: SaintScore (TRRAP; WNT-OFF (10 nM LGK974)) | other: SaintScore (TRRAP; WNT-ON (10 µM CHIR99021)) | other: SaintScore (β-catenin; WNT-OFF (10 nM LGK974)) | other: SaintScore (β-catenin; WNT-ON (10 µM CHIR99021)) | Substance
1 | 0.65 | 1 | 0.93 | 0.67 | 0.67 | 1 | 0.67 | 0.33 | 0.67 | TBX3-WT-BirA (from UniProt O15119) RRM del
0.32 | 0.71 | 0 | 0.67 | 0 | 0.67 | 0 | 0.67 | – | 0.67 | TBX3-WT-BirA (from UniProt O15119) NPF del
